Consider 19 molecules from patent publication US20250186614A1, “COMPACT DRUG RESPONSIVE DOMAINS FOR REGULATION OF FUNCTION/ABUNDANCE AND DELIVERY OF POLYPEPTIDE PAYLOADS” (OBSIDIAN THERAPEUTICS, INC., priority 2022, published 2025).

Numbering of substitutions follows the chain as printed. Names may count otherwise.

For the assay, the system named is Jurkat cells. In words: Tacrolimus dose response of FKBP13-AcGFP-mCherry constructs stably transduced into Jurkat cells, GFP MFI by flow cytometry. More on the design: Basal: unit not given here. The class given is cell-based. In short, it runs like this:
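GFP geometric MFI was read by flow cytometry in mCherry+ cells and curve-fitted against tacrolimus dose. Cells were Jurkat E6-1, lentivirus-transduced with FKBP13-AcGFP-mCherry fusion constructs until 10-25% mCherry-positive on day 5 post-transduction.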

Setting [1] is: tacrolimus, Jurkat cells stably transduced, Table 6.
Setting [2] is: tacrolimus, Jurkat cells, Table 13.

B1: FKBP-146: FKBP13 DRD Q72R, Q84E, A117H, L104S, I136L; SEQ ID NO: 96 (protein)
chain: HCPIKSRKGDVLHMHYTGKLEDGTEFDSSLPRNQPFVFSLGTGEVIKGWDQGLLGMCEGEKRKSVIPSELGYGERGHPPKIPGGATLVFEVELLKLER
modifications: Description of sequence: FKBP13-AcGFP-mCherry Fusion; Construct Name: FKBP-146; FKBP13 DRD in Construct : FKBP13 (mutated to match FKBP12 active site Q72R Q84E A117H) (DRD L104S I136L)
With B1, the “Fold Change” value under setting [1] is on record as 1.19.

B2: FKBP-150: FKBP13 DRD Q72R, Q84E, A117H, E61G, G124P; SEQ ID NO: 100 (protein)
chain: B1 chain with E21G, S64L, G84P, L96I
modifications: Description of sequence: FKBP13-AcGFP-mCherry Fusion; Construct Name: FKBP-150; FKBP13 DRD in Construct : FKBP13 (mutated to match FKBP12 active site Q72R Q84E A117H) (DRD E61G G124P)
For the molecule B2, the “Fold Change” value under setting [1] is 21.15.

B3: FKBP-147: FKBP13 DRD Q72R, Q84E, A117H, T64R, S108G, E137F; SEQ ID NO: 97 (protein)
chain: B1 chain with T24R, S64L, S68G, L96I, E97F
modifications: Description of sequence: FKBP13-AcGFP-mCherry Fusion; Construct Name: FKBP-147; FKBP13 DRD in Construct : FKBP13 (mutated to match FKBP12 active site Q72R Q84E A117H) (DRD T64R S108G E137F)
Turning to B3, the “Fold Change” value under setting [1] was found to be 26.65.

B4: FKBP-273: FKBP13 DRD-AcGFP construct of Table 10 (protein)
chain: B1 chain with V45R, S64L, E74G, H77W, L96I
modifications: Description of sequence: Construct Name: FKBP-273; Mutation(s): Q72R Q84E A117W V85R DRD E114G
In turn, B4 yielded an FC (tacrolimus, FIGS. 33 and 34) of 36. The “Fold Change” value under setting [2] was determined as 36.

B5: FKBP-262: FKBP13 DRD-AcGFP construct of Table 10 (protein)
chain: B1 chain with P3R, V45R, S64L, H77W, K95Y, L96I
modifications: Description of sequence: Construct Name: FKBP-262; Mutation(s): Q72R Q84E A117W V85R DRD P43R K135Y
For B5, under “FIG. 49, BR1 (Biorep 1)”, the Basal is 59.5, the FC was determined as 66.64 and the “At 10 uM” value is on record as 3965. For the same molecule, for the setting “FIG. 49, BR2 (Biorep 2)”, the Basal was determined as 73.7, the FC was found to be 52.21 and the “At 10 uM” value is reported as 3848. Moreover, for the setting “tacrolimus, FIGS. 31 and 32”, the FC was found to be 73. Also, the “Fold Change” value under setting [2] was 73.

B6: FKBP-269 (protein)
chain: B1 chain with H13Q, V45R, S64L, H77W, L96I
modifications: Description of sequence: Construct Name: FKBP-269; Mutation(s): Q72R Q84E A117W V85R DRD H53Q
Turning to B6, the “Fold Change” value under setting [2] worked out at 44.

B7: FKBP-264: FKBP13 DRD-AcGFP construct of Table 10 (protein)
chain: B1 chain with S39W, E44R, V45R, S64L, H77W, L96I
modifications: Description of sequence: Construct Name: FKBP-264; Mutation(s): Q72R S79W Q84R A117W DRD V85R
For the molecule B7, where the note is “FIG. 45, BR1 (Biorep 1)”, the Basal was determined as 127, the FC amounted to 37.06 and the “At 10 uM” value is given as 4706. Moreover, the “Fold Change” value under setting [2] amounted to 37.08.

B8: FKBP-149: FKBP13 DRD Q72R, Q84E, A117H, T64Q, L94G; SEQ ID NO: 99 (protein)
chain: B1 chain with T24Q, L54G, S64L, L96I
modifications: Description of sequence: FKBP13-AcGFP-mCherry Fusion; Construct Name: FKBP-149; FKBP13 DRD in Construct : FKBP13 (mutated to match FKBP12 active site Q72R Q84E A117H) (DRD T64Q L94G)
As to B8, the “Fold Change” value under setting [1] was 39.28.

B9: FKBP-268: FKBP13 DRD-AcGFP construct of Table 10 (protein)
chain: B1 chain with C2R, V45R, S64L, H77W, L96I
modifications: Description of sequence: Construct Name: FKBP-268; Mutation(s): Q72R Q84E A117W V85R DRD C42R
With B9, for the setting “tacrolimus, FIGS. 31 and 32”, the FC is 18. In addition, the “Fold Change” value under setting [2] worked out at 18.

B10: FKBP-120: FKBP13 DRD Q72R, Q84E, A117H, K101W; SEQ ID NO: 70 (protein)
chain: B1 chain with K61W, S64L, L96I
modifications: Description of sequence: FKBP13-AcGFP-mCherry Fusion; Construct Name: FKBP-120; FKBP13 DRD in Construct : FKBP13 (mutated to match FKBP12 active site Q72R Q84E A117H) (DRD K101W)
On to B10, for which the “Fold Change” value under setting [1] is 30.53.

B11: FKBP-118: FKBP13 DRD Q72R, Q84E, A117H, V85R; SEQ ID NO: 68 (protein)
chain: B1 chain with V45R, S64L, L96I
modifications: Description of sequence: FKBP13-AcGFP-mCherry Fusion; Construct Name: FKBP-118; FKBP13 DRD in Construct : FKBP13 (mutated to match FKBP12 active site Q72R Q84E A117H) (DRD V85R)
B11: the “Fold Change” value under setting [1] was 12.95.

B12: FKBP-271: FKBP13 DRD-AcGFP construct of Table 10 (protein)
chain: B1 chain with V45R, K63R, S64L, H77W, L96I
modifications: Description of sequence: Construct Name: FKBP-271; Mutation(s): Q72R Q84E A117W V85R DRD K103R
B12: for the setting “tacrolimus, FIGS. 33 and 34”, the FC stood at 19. For the same molecule, under setting [2], the “Fold Change” value worked out at 19.

B13: FKBP-267 (protein)
chain: B1 chain with V45R, M56W, S64L, H77W, L96I
modifications: Description of sequence: Construct Name: FKBP-267; Mutation(s): Q72R Q84E A117W V85R DRD M96W
On to B13, for which the “Fold Change” value under setting [2] was determined as 67.

B14: FKBP-270: FKBP13 DRD-AcGFP construct of Table 10 (protein)
chain: B1 chain with L12M, V45R, S64L, H77W, L96I
modifications: Description of sequence: Construct Name: FKBP-270; Mutation(s): Q72R Q84E A117W V85R DRD L52M
B14: the FC (tacrolimus, FIGS. 33 and 34) is recorded as 38. The “Fold Change” value under setting [2] was determined as 38.

B15: FKBP-265: FKBP13 DRD-AcGFP construct of Table 10 (protein)
chain: B1 chain with T42W, E44R, V45R, S64L, H77W, L96I
modifications: Description of sequence: Construct Name: FKBP-265; Mutation(s): Q72R T82W Q84R A117W DRD V85R
On to B15, for which, under “FIG. 45, BR1 (Biorep 1)”, the Basal was 78, the FC is 53.72 and the “At 10 uM” value turned out to be 4190. Besides, under “FIG. 45, BR2 (Biorep 2)”, the Basal was determined as 102, the FC is given as 41.58 and the “At 10 uM” value is reported as 4241. The FC (tacrolimus, FIGS. 31 and 32) worked out at 58. In addition, the “Fold Change” value under setting [2] worked out at 53.72.

B16: FKBP-260: FKBP13 DRD-AcGFP construct of Table 10 (protein)
chain: B1 chain with V45R, K61N, S64L, H77W, L96I
modifications: Description of sequence: Construct Name: FKBP-260; Mutation(s): Q72R Q84E A117W V85R DRD K101N
The molecule B16 returned an FC (tacrolimus, FIGS. 31 and 32) of 51. Further, the “Fold Change” value under setting [2] was 51.

B17: FKBP-148: FKBP13 DRD Q72R, Q84E, A117H, D62N, D67N, D90N, M96G, E130K; SEQ ID NO: 98 (protein)
chain: B1 chain with D22N, D27N, D50N, M56G, S64L, E90K, L96I
modifications: Description of sequence: FKBP13-AcGFP-mCherry Fusion; Construct Name: FKBP-148; FKBP13 DRD in Construct : FKBP13 (mutated to match FKBP12 active site Q72R Q84E A117H) (DRD D62N D67N D90N M96G E130K)
With B17, the “Fold Change” value under setting [1] turned out to be 1.09.

B18: FKBP-119: FKBP13 DRD Q72R, Q84E, A117W, K101W; SEQ ID NO: 69 (protein)
chain: B1 chain with K61W, S64L, H77W, L96I
modifications: Description of sequence: FKBP13-AcGFP-mCherry Fusion; Construct Name: FKBP-119; FKBP13 DRD in Construct : FKBP13 (mutated to match FKBP12 active site Q72R Q84E A117W) (DRD K101W )
As to B18, the “Fold Change” value under setting [1] was 31.91.

B19: FKBP-266 (protein)
chain: B1 chain with D10L, V45R, S64L, H77W, L96I
modifications: Description of sequence: Construct Name: FKBP-266; Mutation(s): Q72R Q84E A117W V85R DRD D50L
In the case of B19, under setting [2], the “Fold Change” value was 60.
